Key:
Test in all cases: Esterase substrate specificity, fluorogenic SAR library kinetics
Type in all cases: biochemical, Staphylococcus aureus
Details in all cases: other: SaGloB, fluorogenic ester substrate; pH 7.5; 37.0 °C
[1] = substrate: CCOCC(=O)OCOc1ccc2c(c1)Oc1cc(OCOC(=O)COCC)ccc1C21OC(=O)c2ccccc21
Protocol: (§1) Kinetic measurements were performed according to [White et al., 2018] with minor variation. Lyophilized human and mouse sera were resuspended according to manufacturer instructions in highly pure, filtered water at protein concentrations of 85 mg/mL and 70 mg/mL, respectively. One milliliter of resuspended serum was added to a 24 mL mastermix for a final concentration of 31.25 mM Tris pH 7.5, 312.5 mM NaCl, 1.25 mM MgCl2, 12.5% glycerol, and 3.4 mg/mL or 2.8 mg/mL protein for human and mouse serum, respectively. For purified proteins, 5 mL of a 75 µg/mL stock was added to yield a 20 mL mastermix containing 31.25 mM Tris pH 7.5, 312.5 mM NaCl, 1.25 mM MgCl2, 12.5% glycerol, and 18.75 µg/mL protein. Mastermix was stored on ice when not in use. Twenty microliters of mastermix was transferred to a black, 96-well half area microplate (Corning, CLS3993) and prewarmed at 37°C. Fluorogenic substrates were prepared as 10 mM stock solutions in 100% DMSO and were diluted in water to a starting concentration of 500 µM. Enzyme catalyzed substrate hydrolysis was initiated by addition of 5 µL substrate dilution in technical duplicate to the prewarmed serum or protein solution. Final assay concentrations were as follows: 25 mM Tris pH 7.5, 250 mM NaCl, 1 mM MgCl2, 10% glycerol, and protein at a concentration of 2.72 mg/mL (human serum), 2.24 mg/mL (mouse serum), or 15 µg/mL (FrmB, GloB). The resulting change in fluorescence (λex = 485 nm, λem = 520 nm) was followed for 15 min at 37°C, collecting data every 30 s on a FLUOstar Omega microplate reader (BMG Labtech). Fluorescence measurements were converted to molar concentrations using a fluorescein standard curve (2.5 nmol–0.6 pmol). The initial rates of reaction were measured three independent times with two technical replicates per measurement and fit to a line using GraphPad Prism (GraphPad Software, La Jolla, CA). Initial rates of reaction were plotted versus the concentration of substrate and fit to a standard Michaelis–Menten equation (v = Vmax[S]/(Km + [S])), yielding estimates of Vmax and Km. Values for kcat and kcat/Km were calculated based on amount of enzyme added when purified enzymes were used.

[2] = substrate: CCCOCC(=O)OCOc1ccc2c(c1)Oc1cc(OCOC(=O)COCCC)ccc1C21OC(=O)c2ccccc21
Protocol: as §1

[3] = substrate: CCSC(C)C(=O)OCOc1ccc2c(c1)Oc1cc(OCOC(=O)C(C)SCC)ccc1C21OC(=O)c2ccccc21
Protocol: as §1

[4] = substrate: CCOC(C)C(=O)OCOc1ccc2c(c1)Oc1cc(OCOC(=O)C(C)OCC)ccc1C21OC(=O)c2ccccc21
Protocol: as §1

[5] = substrate: CCSCCC(=O)OCOc1ccc2c(c1)Oc1cc(OCOC(=O)CCSCC)ccc1C21OC(=O)c2ccccc21
Protocol: as §1

[6] = substrate: COCCC(=O)OCOc1ccc2c(c1)Oc1cc(OCOC(=O)CCOC)ccc1C21OC(=O)c2ccccc21
Protocol: as §1

[7] = substrate: CSCC(=O)OCOc1ccc2c(c1)Oc1cc(OCOC(=O)CSC)ccc1C21OC(=O)c2ccccc21
Protocol: as §1

[8] = substrate: CCCC(=O)OCOc1ccc2c(c1)Oc1cc(OCOC(=O)CCC)ccc1C21OC(=O)c2ccccc21
Protocol: as §1

[9] = substrate: CCCC(C)C(=O)OCOc1ccc2c(c1)Oc1cc(OCOC(=O)C(C)CCC)ccc1C21OC(=O)c2ccccc21
Protocol: as §1

[10] = substrate: COCC(=O)OCOc1ccc2c(c1)Oc1cc(OCOC(=O)COC)ccc1C21OC(=O)c2ccccc21
Protocol: as §1

[11] = substrate: CC(C)OCC(=O)OCOc1ccc2c(c1)Oc1cc(OCOC(=O)COC(C)C)ccc1C21OC(=O)c2ccccc21
Protocol: as §1

[12] = substrate: CC(C)SCC(=O)OCOc1ccc2c(c1)Oc1cc(OCOC(=O)CSC(C)C)ccc1C21OC(=O)c2ccccc21
Protocol: as §1

[13] = substrate: COC(C)C(=O)OCOc1ccc2c(c1)Oc1cc(OCOC(=O)C(C)OC)ccc1C21OC(=O)c2ccccc21
Protocol: as §1

B1: SaGloB (Staphylococcus aureus subsp. aureus str. Newman) (protein)
chain: MRISSLTLGLVDTNTYFIENDKAVILIDPSGESEKIIKKLNQINKPLKAILLTHAHFDHIGAVDDIVDRFDVPVYMHEAEFDFLKDPVKNGADKFKQYGLPIITSKVTPEKLNEGSTEIEGFKFNVLHTPGHSPGSLTYVFDEFAVVGDTLFNNGIGRTDLYKGDYETLVDSIQDKIFELEGDLPLFPGHGPYTTVDDEQLNPFLHG
**Q.** With B1 as the protein, how does the Km [1] read?
**A.** 42.0 µM

**Q.** What about the Vmax [1] of the same protein?
**A.** 46.4 pmol*min-1*μg protein-1

**Q.** And the kcat [1]?
**A.** 6.93 10-3 s-1

**Q.** And the kcat/Km [1]?
**A.** 165 M⁻¹ s⁻¹

**Q.** What about the Km [2] of the same protein?
**A.** 8.41 µM

**Q.** And the Vmax [2]?
**A.** 4.21 pmol*min-1*μg protein-1

**Q.** What about the kcat [2] of the same protein?
**A.** 0.630 10-3 s-1

**Q.** What about the kcat/Km [2] of the same protein?
**A.** 74.8 M⁻¹ s⁻¹

**Q.** What about the Km [3] of the same protein?
**A.** 79.8 µM

**Q.** And the Vmax [3]?
**A.** 1.02 pmol*min-1*μg protein-1

**Q.** What about the kcat [3] of the same protein?
**A.** 0.153 10-3 s-1

**Q.** And the kcat/Km [3]?
**A.** 1.92 M⁻¹ s⁻¹

**Q.** And the Km [4]?
**A.** 15.5 µM

**Q.** What about the Vmax [4] of the same protein?
**A.** 1.01 pmol*min-1*μg protein-1

**Q.** And the kcat [4]?
**A.** 0.151 10-3 s-1

**Q.** And the kcat/Km [4]?
**A.** 9.71 M⁻¹ s⁻¹

**Q.** And the Km [5]?
**A.** 31.7 µM

**Q.** And the Vmax [5]?
**A.** 0.18 pmol*min-1*μg protein-1

**Q.** What about the kcat [5] of the same protein?
**A.** 0.0266 10-3 s-1

**Q.** And the kcat/Km [5]?
**A.** 0.840 M⁻¹ s⁻¹

**Q.** What about the Km [6] of the same protein?
**A.** 18.0 µM

**Q.** And the Vmax [6]?
**A.** 1.39 pmol*min-1*μg protein-1

**Q.** What about the kcat [6] of the same protein?
**A.** 0.208 10-3 s-1

**Q.** And the kcat/Km [6]?
**A.** 11.5 M⁻¹ s⁻¹

**Q.** And the Km [7]?
**A.** 32.49 µM

**Q.** And the Vmax [7]?
**A.** 14.9 pmol*min-1*μg protein-1

**Q.** And the kcat [7]?
**A.** 2.22 10-3 s-1

**Q.** What about the kcat/Km [7] of the same protein?
**A.** 68.4 M⁻¹ s⁻¹

**Q.** What about the Km [8] of the same protein?
**A.** 6.23 µM

**Q.** And the Vmax [8]?
**A.** 0.497 pmol*min-1*μg protein-1

**Q.** What about the kcat [8] of the same protein?
**A.** 0.0744 10-3 s-1

**Q.** And the kcat/Km [8]?
**A.** 11.9 M⁻¹ s⁻¹

**Q.** What about the Km [9] of the same protein?
**A.** 84.89 µM

**Q.** What about the Vmax [9] of the same protein?
**A.** 0.351 pmol*min-1*μg protein-1

**Q.** And the kcat [9]?
**A.** 0.0524 10-3 s-1

**Q.** And the kcat/Km [9]?
**A.** 0.618 M⁻¹ s⁻¹

**Q.** And the Km [10]?
**A.** 73.5 µM

**Q.** What about the Vmax [10] of the same protein?
**A.** 217 pmol*min-1*μg protein-1

**Q.** What about the kcat [10] of the same protein?
**A.** 32.5 10-3 s-1

**Q.** And the kcat/Km [10]?
**A.** 442 M⁻¹ s⁻¹

**Q.** And the Km [11]?
**A.** 12.0 µM

**Q.** And the Vmax [11]?
**A.** 2.91 pmol*min-1*μg protein-1

**Q.** What about the kcat [11] of the same protein?
**A.** 0.435 10-3 s-1

**Q.** And the kcat/Km [11]?
**A.** 36.1 M⁻¹ s⁻¹

**Q.** And the Km [12]?
**A.** 65.8 µM

**Q.** And the Vmax [12]?
**A.** 4.19 pmol*min-1*μg protein-1

**Q.** And the kcat [12]?
**A.** 0.627 10-3 s-1

**Q.** And the kcat/Km [12]?
**A.** 9.53 M⁻¹ s⁻¹

**Q.** And the Km [13]?
**A.** 20.5 µM

**Q.** And the Vmax [13]?
**A.** 23.1 pmol*min-1*μg protein-1

**Q.** What about the kcat [13] of the same protein?
**A.** 3.45 10-3 s-1

**Q.** What about the kcat/Km [13] of the same protein?
**A.** 168 M⁻¹ s⁻¹
